Five molecules from US20200325230A1 (CURIA IP, published 2020) can be followed below.

The target of assay [1] is T1, human BTLA expressed on HEK-293 cells (human, UniProt Q7Z6A9 31-289).
T1 construct: whole, on cells
Nature of the assay: flow cytometry on HEK 293 cells expressing BTLA (MFI). In general terms: In flow cytometry, cells or beads pass a laser one at a time.

The target in assay [2] is T2, cynomolgus BTLA expressed on HEK-293 cells (cynomolgus, UniProt A0A2K5W7M7 31-289).
T2 construct: whole, on cells; also called Cyno BTLA
Described as above.

Another assay has as its target T3, cynomolgus BTLA(ECD)-HIS (cynomolgus, UniProt A0A2K5W7M7 31-157).
T3 construct: extracellular domain; also called Cyno BTLA; not shown: HIS tag
Put plainly: ELISA, coated BTLA(ECD)-HIS, chemiluminescence (RLU). A general note: An ELISA detects its analyte on a solid surface through an enzyme-linked reagent.

A further assay has as its target T4, human BTLA(ECD)-HIS (human, UniProt Q7Z6A9 31-157).
T4 construct: extracellular domain; also called recombinant BTLA; not shown: HIS tag
The assay is described as above.

The target of another assay is T5, cynoBTLA-human Fc (cynomolgus, UniProt A0A2K5W7M7 31-157).
T5 construct: also called cynomolgus BTLA; not shown: human Fc
Nature of the assay: ELISA, inhibition of cynoBTLA-human Fc binding to coated human HVEM-ratIgG2a.

The next assay has as its target T6, human BTLA-human Fc (human, UniProt Q7Z6A9 31-157).
T6 construct: not shown: human Fc
Nature of the assay: ELISA, inhibition of BTLA-human Fc binding to coated human HVEM-ratIgG2a.

The target in assay [3] is T7, cynomolgus BTLA (analyte of Bio-Layer Interferometry) (cynomolgus, UniProt A0A2K5W7M7 31-157).
T7 construct: also called Cyno BTLA
Nature of the assay: Bio-Layer Interferometry (Octet), antibody captured by anti-human-Fc (AHC), BTLA in solution, 1:1 fit. (In general: Biolayer interferometry detects binding as a change in optical thickness at a sensor tip.)

In another assay the target is recombinant human BTLA (human, UniProt Q7Z6A9 31-157, limits assumed). The assay is described as above.

T2 sequence (A0A2K5W7M7 entry or part of it): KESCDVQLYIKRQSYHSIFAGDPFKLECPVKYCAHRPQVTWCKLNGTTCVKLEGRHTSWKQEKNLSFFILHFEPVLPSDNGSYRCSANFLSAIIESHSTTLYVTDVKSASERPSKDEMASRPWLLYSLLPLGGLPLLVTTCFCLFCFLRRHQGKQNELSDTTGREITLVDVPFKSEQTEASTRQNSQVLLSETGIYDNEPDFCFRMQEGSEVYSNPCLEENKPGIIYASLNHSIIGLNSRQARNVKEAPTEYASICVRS
T5 sequence (A0A2K5W7M7 entry or part of it): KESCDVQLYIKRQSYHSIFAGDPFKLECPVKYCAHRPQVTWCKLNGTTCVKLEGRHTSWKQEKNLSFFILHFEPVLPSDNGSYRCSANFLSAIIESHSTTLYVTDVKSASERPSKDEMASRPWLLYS

B1: anti-BTLA antibody 12-I8A (antibody, V domains shown)
VH: QVQLVESGGGVVQPGRSLRLSCAASGFTFSNYGMHWVRQAPGKGLEWVAVIWYNGSNKYYADSVKGRFTISRDNSKNTLYLQMNSLRAEDTAVYYCARDDVVRYFDWPLDYWGQGTLVTVSS
VL: AIQMTQSPSSLSASVGDRVTITCRASQGIRNDLGWYQQKPGKAPKVLIYAASSLQSGVPSRFSGSGSGTDFTLTISSLQPEDFATYYCLQDYNYPWTFGQGTKVEIK
notes: also called 12-IBA
Turning to B1, the EC50 amounted to 2.9 nM in assay [1], 5 nM in assay [2], 4.2 nM with cynomolgus BTLA(ECD)-HIS and 1.4 nM with human BTLA(ECD)-HIS. Besides, the figures for the IC50 with cynoBTLA-human Fc and with human BTLA-human Fc were 4.6 nM and 4.4 nM, respectively. In addition, the equilibrium dissociation constant (Kd) in assay [3] was 23.2 nM; with recombinant human BTLA, 25.2 nM.

B2: anti-BTLA antibody 16-I20A (antibody, V domains shown)
VH: QVQLQESGPGLVKPSETLSLTCTVSGGSISYYYWSWIRQPPGTGLEWIGYIYYSGSTKYNPSLKRRVTISVDTSKNQFSLKLSSVTAADTAVYYCARIRGDSYGWDFDYWGQGTLVTVSS
VL: EIVMTQSPATLSLSPGERATLSCRASQSISNNYLFWYQQKPGQAPRLLIYGASTRATGIPARFSGSGSGTDFTLTISSLQPEDFAVYYCQQDYNFPLTFGGGTKVEIK
notes: also called 16420A
Take B2: the EC50 in assay [1] is 5 nM; in assay [2], 6.9 nM; with cynomolgus BTLA(ECD)-HIS, 0.8 nM; in the assay with human BTLA(ECD)-HIS, 0.7 nM. Also, the figures for the IC50 in the assay with cynoBTLA-human Fc and with human BTLA-human Fc were 2.5 nM and 2.9 nM, respectively. The Kd was determined as 16.6 nM in assay [3] and 14.9 nM with recombinant human BTLA.

B3: anti-BTLA antibody 16-H16A (antibody, V domains shown)
VH: QLQLQESGPGLVKPSETLSLTCTVSGDSISSSGYYWGWIRQPPGKGLEWIGSIYYSGSTHYNPSLKSRVTISVDSSKSQFSLKLSSVTAADTAVYCCARHKVDSSGWPLDYWGQGTLVTVSS
VL: EIVMTQSPATLSLSPGERATLSCRASQSISSSCLSWYQQKPGQAPRLLIYDTSTRATGIPARFSGSGSGTDFTLTISSLQPEDFAVYYCQQDYNLPLTFGGGTKVEIK
Turning to B3, the EC50 in assay [1] is 4.7 nM; in assay [2], 4.4 nM; with cynomolgus BTLA(ECD)-HIS, 1.9 nM; in the assay with human BTLA(ECD)-HIS, 0.9 nM. The values for the IC50 with cynoBTLA-human Fc and with human BTLA-human Fc were 2.3 nM and 3 nM, respectively. Further, the results for the dissociation constant Kd (in assay [3]; with recombinant human BTLA) were 4.1 nM and 13.9 nM, respectively.

B4: anti-BTLA antibody 8-M23A (antibody, V domains shown)
VH: QVQLQESGPGLVKPSETLSLTCTVSGGSISSYYWSWIRQPPGKGLEWIGYIYYSGSTNYNPSLKSRITISVDTSKNQFSLKLSSVTAADTAVYYCARVILYSSGWSFDYWGQGTLVTVSS
VL: EIVMTQSPATLSLSPGERATLSCRASQSVSSSYLSWYQQKPGQAPRLLIYGASTRATGIPARFSGSGSGTDFTLTISSLQPEDFAVYYCQQDYNLPLTFGGGTKVEIK
Molecule B4 displayed an EC50 in the assay with human BTLA(ECD)-HIS of 0.8 nM.

B5: anti-BTLA antibody 13-F7A (antibody, V domains shown)
VH: EVQLLESGGGLVQPGGSLRLSCAASGFTSSSYGMSWVRQAPGKGLEWVSGISGSGGGTYYADSVKGRFTISRDNSKNTLYLQMNSLRAEDTAVYYCAKGDYYGSGSYPLFDYWGQGTLVTVSS
VL: AIQLTQSPSSLSASVGDRVTITCRASQDISSALAWYQQKPGKAPKLLISDASSLESGVPSRFSGSGSGTDFTLTISSLQPEDFATFYCQQFNNYPPTFGPGTKVDIK
As to B5, the EC50 in assay [1] was determined as 1.5 nM; in assay [2], 2.6 nM; in the assay with cynomolgus BTLA(ECD)-HIS it was 1 nM; in the assay with human BTLA(ECD)-HIS it was 1 nM. Further, the IC50 stood at 1.8 nM with cynoBTLA-human Fc and 2.5 nM with human BTLA-human Fc. In addition, the values for the Kd (in assay [3]; with recombinant human BTLA) were 3.9 nM and 5.4 nM, respectively.

By EC50 is commonly meant the concentration that produces a half-maximal response. Low readings indicate an effect from little substance, high ones a need for much substance. Usually IC50 stands for the concentration that gives 50% inhibition. The low end stands for higher potency, the high end for lower potency. What is called Kd is a measure of binding affinity in units of concentration.
